Assay [1] deals with T1, Extant Strep-NifD2K2 (dinitrogenase, MoFe protein), Azotobacter vinelandii strain DJ2102 (Azotobacter vinelandii) (UniProt P07328).
T1 sequence 1: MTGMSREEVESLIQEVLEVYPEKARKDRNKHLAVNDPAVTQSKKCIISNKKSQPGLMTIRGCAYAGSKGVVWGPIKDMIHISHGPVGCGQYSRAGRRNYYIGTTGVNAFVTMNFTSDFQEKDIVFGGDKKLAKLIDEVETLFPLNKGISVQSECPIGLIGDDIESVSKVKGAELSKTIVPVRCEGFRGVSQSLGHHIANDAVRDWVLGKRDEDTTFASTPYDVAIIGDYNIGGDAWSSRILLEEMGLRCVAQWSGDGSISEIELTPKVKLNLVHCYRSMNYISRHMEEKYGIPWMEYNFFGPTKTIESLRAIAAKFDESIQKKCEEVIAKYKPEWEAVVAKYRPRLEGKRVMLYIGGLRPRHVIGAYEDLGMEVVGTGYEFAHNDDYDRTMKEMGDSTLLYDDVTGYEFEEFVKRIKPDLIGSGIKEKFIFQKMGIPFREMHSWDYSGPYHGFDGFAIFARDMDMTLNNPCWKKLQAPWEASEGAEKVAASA
T1 sequence 2: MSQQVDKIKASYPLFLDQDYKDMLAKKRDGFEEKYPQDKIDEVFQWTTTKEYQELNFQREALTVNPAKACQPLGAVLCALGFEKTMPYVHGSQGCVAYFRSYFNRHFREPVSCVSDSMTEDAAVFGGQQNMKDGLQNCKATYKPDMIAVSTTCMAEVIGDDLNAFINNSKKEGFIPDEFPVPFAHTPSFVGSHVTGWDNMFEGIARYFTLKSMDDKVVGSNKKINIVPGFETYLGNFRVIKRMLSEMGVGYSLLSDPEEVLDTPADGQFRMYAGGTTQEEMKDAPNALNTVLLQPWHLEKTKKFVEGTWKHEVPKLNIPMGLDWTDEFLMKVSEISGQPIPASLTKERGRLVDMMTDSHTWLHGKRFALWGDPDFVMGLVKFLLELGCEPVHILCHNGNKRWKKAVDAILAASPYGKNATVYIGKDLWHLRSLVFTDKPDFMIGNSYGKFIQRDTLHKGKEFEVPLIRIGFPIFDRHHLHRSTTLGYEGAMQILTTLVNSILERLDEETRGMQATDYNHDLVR

The target of assay [2] is T2, Extant Strep-II-tagged NifD (nitrogenase molybdenum-iron protein alpha chain), Azotobacter vinelandii strain … (Azotobacter vinelandii, UniProt P07328 1-492).
T2 construct: nitrogenase molybdenum-iron protein alpha chain NifD, Azotobacter vinelandii, UniProtKB P07328; expressed from the A. vinelandii genome; The end that carries the Strep-II tag is stated only for the ancestral NifD (N-terminus); also called Strep-II-tagged WT NifD; D subunit
T2 sequence (looked up): T1 sequence 1
Description: co-purification (Strep-Tactin affinity chromatography) with densitometry of SDS-PAGE bands; Strep-II-tagged NifD captured on Strep-Tactin from A. vinelandii cells; NifK found with it on SDS-PAGE (Coomassie blue); anaerobic handling. To be noted: partners not purified.

Consider “Extant NifH2 (dinitrogenase reductase, nitrogenase iron protein 1), Azotobacter vinelandii strain DJ884 (from UniProt P00459 2-290) (enzyme)”, for which the inorganic phosphate released per electron transferred (Pi/e- ratio) during N2 reduction, 2 min under 1 atm N2; 0.42 µM NifD2K2 and 8.4 µM NifH2, 10 mM MgATP in assay [1] came out at 2.8 ATP/e-.

B1: Extant NifK (nitrogenase molybdenum-iron protein beta chain), Azotobacter vinelandii strain DJ2102 (enzyme, UniProt P07329 1-523, looked up)
chain: T1 sequence 2
notes: nitrogenase molybdenum-iron protein beta chain NifK, Azotobacter vinelandii, UniProtKB P07329; also called K subunit
Take B1: the “stoichiometry N” value in assay [2] is 0.93 D:K.

Source of the values: PMC11253609, “Ancient nitrogenases are ATP dependent” (mBio, 2024).
